Data reported in publication PMC11813584, “An odorant-binding protein functions in fire ant social immunity interfacing with innate immunity” (Open Biology, 2025).
pKd: −log10 of the molar value.

Target: SiOBP15, purified, His-tag removed (Solenopsis invicta)
Test: SPR; open SPR; SiOBP15 coupled to a COOH chip until saturation, SiApoLp-III or SiFABP5 titrated as analyte; one-to-one model (TraceDrawer)

pKd: 5.96
Substance: SiFABP5, purified, His-tag removed (natural protein)
